From PMC2782360

How the values were obtained:
[1] = molecular target: native 67 kDa laminin receptor (67LR) shed from T47D cells (human (endogenous in T47D)) (UniProt P08865); assay: SPR
[2] = molecular target: recombinant human 37 kDa laminin receptor precursor (37LRP) (human) (UniProt P08865); assay: SPR

Substance: human laminin (complex)
- Kd [1]: 320 nM
- Kd [2]: 410 nM
